The experiment addresses CD137 ligand expressed by the monocytes (human) (UniProt P41273). Kind of experiment: cell-based or functional assay.
Sequence of UniProt P41273 (P41273 whole entry): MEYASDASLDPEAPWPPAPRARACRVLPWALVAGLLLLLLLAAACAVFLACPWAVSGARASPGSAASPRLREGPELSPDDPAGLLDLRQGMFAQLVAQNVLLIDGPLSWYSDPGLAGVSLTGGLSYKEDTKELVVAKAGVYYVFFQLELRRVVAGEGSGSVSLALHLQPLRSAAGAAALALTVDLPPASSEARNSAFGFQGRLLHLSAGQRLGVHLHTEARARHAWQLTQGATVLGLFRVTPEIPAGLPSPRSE

Substance “Recombinant CD137-Fc protein, consisting of the extracellular domain of human CD137 and the constant domain of human immunoglobulin G1 (Fc) (from UniProt Q07011 18-186) (Fc fusion)” displayed a 3H-thymidine incorporation of peripheral monocytes on immobilized CD137-Fc, against control cells above 30 fold.

These data come from patent US6627200.
